Source: the supplement of paper PMC9170038

System: K4 kissing-loop RNA reporter
Assay: apparent KD of K4 kissing-loop reporter; higher = weaker reporter binding
Conditions: Eterna round: R107
Procedure: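 RNA-MaP round R107: designed RNA switches with theophylline, tryptophan, arginine or FMN aptamers are transcribed on-chip within common flanks. They are titrated with a labelled K4 kissing-loop RNA reporter in RNA-MaP buffer (100 mM Tris pH 7.5, 80 mM KCl, 4 mM MgCl2), without ligand or with the indicated ligand. Median apparent KD per design.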

[1] = input ligand: theophylline 20 uM
[2] = input ligand: tryptophan 2.4 mM
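Note: bound reporter read as fluorescence of individual clusters on recovered sequencing chips by microscopy, with normalized cluster intensities fitted with a binding model.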

With “AAAUUCUUUUUUUUAUAUAACGAUUCAGAAGGAGCGAGGUAGAACUCAGGUAGGUCGCUGAAUAUAAGACUAGUGAUGUUAGUAA [#01 K4 Arginine A Same State]” as the sequence, how does the “apparent KD of K4 kissing-loop reporter” value (input ligand: FMN 200 uM) read?
Its value is 175 nM.

And the “apparent KD of K4 kissing-loop reporter” value (input ligand: arginine 13.2 mM)?
The value was 193 nM.

And the “apparent KD of K4 kissing-loop reporter” value (input ligand: none)?
The value was 224 nM.

What about the “apparent KD of K4 kissing-loop reporter” value [1] of the same sequence?
The value was 238 nM.

And the “apparent KD of K4 kissing-loop reporter” value [2]?
Its value is 156 nM.

Which results are given for “ACCCGGGCCCGAAAGGGCCCGGGAAGAGAUACCAGCAGCGAAAGCUGCCCUUGGCAGCUCACUUAGUGAUGUUGAGUAUAGGGUA [#22 K4 Theophylline A Same State]”?
apparent KD of K4 kissing-loop reporter (input ligand: FMN 200 uM): 1100 nM; apparent KD of K4 kissing-loop reporter (input ligand: arginine 13.2 mM): 463 nM; apparent KD of K4 kissing-loop reporter (input ligand: none): 279 nM; apparent KD of K4 kissing-loop reporter [1]: 185 nM; apparent KD of K4 kissing-loop reporter [2]: 361 nM

How did the “apparent KD of K4 kissing-loop reporter” value (input ligand: FMN 200 uM) turn out when “CCUAUCUCAUACGAUACCAGUCAAAAUAUAAUUAACCAGUGAUGUUGGAUUUACCAAGGAGACCCUUGGCAGCGUAUGGGAUAGG [Ex Theophylline B K4 18]” was run?
The value was 387 nM.

And the “apparent KD of K4 kissing-loop reporter” value (input ligand: arginine 13.2 mM)?
The value was 412 nM.

And the “apparent KD of K4 kissing-loop reporter” value (input ligand: none)?
Its value is 410 nM.

What about the “apparent KD of K4 kissing-loop reporter” value [1] of the same sequence?
The value was 517 nM.

What about the “apparent KD of K4 kissing-loop reporter” value [2] of the same sequence?
The value was 540 nM.

What does the source list for “GGAUGGUAGGCGGCCGCCACUAAAAGUGAACACAUACAAGCCAGUGAUGUUGGUAUGAUGGACUAUAGGACCGGGCCUAGAUAGA [Exclusion - Tryptophan B (Freestyle 6)]”?
apparent KD of K4 kissing-loop reporter (input ligand: FMN 200 uM): 468 nM; apparent KD of K4 kissing-loop reporter (input ligand: arginine 13.2 mM): 410 nM; apparent KD of K4 kissing-loop reporter (input ligand: none): 522 nM; apparent KD of K4 kissing-loop reporter [1]: 454 nM; apparent KD of K4 kissing-loop reporter [2]: 466 nM

Which “apparent KD of K4 kissing-loop reporter” value (input ligand: FMN 200 uM) does the source give for “AAUCAAUACAGAAGGAGCGUGACAUUUGCUAUUGUAAUUUUAGCUAGUGAUGUUAGCAUUUCACAGGUAGGUCGCUGUACAUUUA [JR_SSArginiB_Sub010]” here?
Its value is 275 nM.

And the “apparent KD of K4 kissing-loop reporter” value (input ligand: arginine 13.2 mM)?
Its value is 324 nM.

And the “apparent KD of K4 kissing-loop reporter” value (input ligand: none)?
The value was 354 nM.

And the “apparent KD of K4 kissing-loop reporter” value [1]?
Its value is 415 nM.

And the “apparent KD of K4 kissing-loop reporter” value [2]?
The value was 259 nM.

With “UUAGUCUAGAGAAGGAGCGCAGUGAUGUUGCGAAUAAUAAUAAUAAUAAAUAAAUAAUCGAUGCAGGUAGGUCGCUCUAGACAUU [AK1 Exc Arginine B]” as the sequence, how does the “apparent KD of K4 kissing-loop reporter” value (input ligand: FMN 200 uM) read?
The value was 217 nM.

And the “apparent KD of K4 kissing-loop reporter” value (input ligand: arginine 13.2 mM)?
The value was 422 nM.

What about the “apparent KD of K4 kissing-loop reporter” value (input ligand: none) of the same sequence?
The value was 288 nM.

And the “apparent KD of K4 kissing-loop reporter” value [1]?
The value was 335 nM.

And the “apparent KD of K4 kissing-loop reporter” value [2]?
The value was 213 nM.

How did the “apparent KD of K4 kissing-loop reporter” value (input ligand: FMN 200 uM) turn out when “GUUACGCAUGGAAGGAGCGCAGGCUCAACAAGUAGCUCAGUGAUGUUGAGCAUAUUAAUUCUGCAGGUAGGUCGCCAUGUGUAAC [Ex Arginine B K4 26]” was run?
The value was 787 nM.

And the “apparent KD of K4 kissing-loop reporter” value (input ligand: arginine 13.2 mM)?
The value was 471 nM.

What about the “apparent KD of K4 kissing-loop reporter” value (input ligand: none) of the same sequence?
The value was 612 nM.

And the “apparent KD of K4 kissing-loop reporter” value [1]?
The value was 802 nM.

What about the “apparent KD of K4 kissing-loop reporter” value [2] of the same sequence?
Its value is 646 nM.

Which “apparent KD of K4 kissing-loop reporter” value (input ligand: FMN 200 uM) does the source give for “CCCUCACGAGUGAUGUUCGUAGGGUACAGUCAGGAUAUCAUGCGGUUGAGAAGGGACAGAGAGGGCGGCGGCGGGUUGCUCCUCU [Beeded]” here?
The value was 290 nM.

What about the “apparent KD of K4 kissing-loop reporter” value (input ligand: arginine 13.2 mM) of the same sequence?
Its value is 240 nM.

What about the “apparent KD of K4 kissing-loop reporter” value (input ligand: none) of the same sequence?
The value was 281 nM.

What about the “apparent KD of K4 kissing-loop reporter” value [1] of the same sequence?
Its value is 711 nM.

What about the “apparent KD of K4 kissing-loop reporter” value [2] of the same sequence?
The value was 495 nM.

Which “apparent KD of K4 kissing-loop reporter” value (input ligand: FMN 200 uM) does the source give for “CGUGCCCAGCCGGAUACCAGUGACCCGCUGGGAACCGCGGGCCCAGAGUGAUGUUCGGGACACCCUUGGCAGCCGCCUGGGCGGG [#2 Same State - Theophylline B Attempt #15 (HarryS)]” here?
Its value is 1020 nM.

What about the “apparent KD of K4 kissing-loop reporter” value (input ligand: arginine 13.2 mM) of the same sequence?
The value was 392 nM.

What about the “apparent KD of K4 kissing-loop reporter” value (input ligand: none) of the same sequence?
Its value is 1100 nM.

What about the “apparent KD of K4 kissing-loop reporter” value [1] of the same sequence?
The value was 512 nM.

And the “apparent KD of K4 kissing-loop reporter” value [2]?
The value was 453 nM.

“AGUGUGCAAAAGCACACUCAGAACAAGGACAAGGAUAUCUACUAAUAGAGAAGGUGUCCUUUCCUUAGUGAUGUUAAGGAUCUGA [Omei KL FMN A SS D v4]” was tested. Which “apparent KD of K4 kissing-loop reporter” value (input ligand: FMN 200 uM) did it give?
The value was 270 nM.

What about the “apparent KD of K4 kissing-loop reporter” value (input ligand: arginine 13.2 mM) of the same sequence?
The value was 424 nM.

And the “apparent KD of K4 kissing-loop reporter” value (input ligand: none)?
The value was 596 nM.

What about the “apparent KD of K4 kissing-loop reporter” value [1] of the same sequence?
Its value is 486 nM.

And the “apparent KD of K4 kissing-loop reporter” value [2]?
The value was 564 nM.

“UCCUGCAAUCUGCCACGAAAGUGGAUUGAUACCAGAGUCGAAAGACUCCCUUGGCAGCGAGUGAUGUUCGUAGCAGGUAAAUAAA [MatMod 6 - Jieux - Exclusion - Theophylline A]” was tested. Which “apparent KD of K4 kissing-loop reporter” value (input ligand: FMN 200 uM) did it give?
The value was 203 nM.

What about the “apparent KD of K4 kissing-loop reporter” value (input ligand: arginine 13.2 mM) of the same sequence?
Its value is 221 nM.

And the “apparent KD of K4 kissing-loop reporter” value (input ligand: none)?
The value was 206 nM.

And the “apparent KD of K4 kissing-loop reporter” value [1]?
The value was 218 nM.

And the “apparent KD of K4 kissing-loop reporter” value [2]?
Its value is 185 nM.

What does the source list for “CGCCGUAAGGCGGUCGCUCCCACUCCGGAAGGAGCGCCCGCAAGGGCAGGUAGGUCGCCGGAGUGAUGUUCCGGUGGAGGGACCG [#2 Exclusion - Arginine A Attempt #7 (Inspired by Omei)]”?
apparent KD of K4 kissing-loop reporter (input ligand: FMN 200 uM): 207 nM; apparent KD of K4 kissing-loop reporter (input ligand: arginine 13.2 mM): 161 nM; apparent KD of K4 kissing-loop reporter (input ligand: none): 260 nM; apparent KD of K4 kissing-loop reporter [1]: 216 nM; apparent KD of K4 kissing-loop reporter [2]: 186 nM

What does the source list for “AUUCUGUUUUUAAUGUUUAUUGUAUAAUGGCAGGAUAUCGUAGAAGCGAGAAGGGCUUUUAUGCGUUAUGAGUGAUGUUUGUAGG [dhhyfvmullin]”?
apparent KD of K4 kissing-loop reporter (input ligand: FMN 200 uM): 364 nM; apparent KD of K4 kissing-loop reporter (input ligand: arginine 13.2 mM): 247 nM; apparent KD of K4 kissing-loop reporter (input ligand: none): 267 nM; apparent KD of K4 kissing-loop reporter [1]: 410 nM; apparent KD of K4 kissing-loop reporter [2]: 270 nM

“UUGUUUGGUUGAGAGGUUGGGCGAGAUGAUACCAGUAGAGAAGAGUACCCUUGGCAGCAUAGGAGAGAUAUAGUGAUGUUGUAUG [SSTheophA.S]” was tested. Which “apparent KD of K4 kissing-loop reporter” value (input ligand: FMN 200 uM) did it give?
The value was 258 nM.

And the “apparent KD of K4 kissing-loop reporter” value (input ligand: arginine 13.2 mM)?
Its value is 187 nM.

And the “apparent KD of K4 kissing-loop reporter” value (input ligand: none)?
Its value is 320 nM.

What about the “apparent KD of K4 kissing-loop reporter” value [1] of the same sequence?
Its value is 498 nM.

What about the “apparent KD of K4 kissing-loop reporter” value [2] of the same sequence?
The value was 299 nM.

“AAUAAAAUCACGGCCGCCACUGAAUUAUUGGUAAGUAGUGAUGUUACUUUACAUAUCUAAUUUAACAGGACCGGGUGAAUAUUUA [#17 K4 Tryptophan B Exclusion]” was tested. Which “apparent KD of K4 kissing-loop reporter” value (input ligand: FMN 200 uM) did it give?
The value was 130 nM.

And the “apparent KD of K4 kissing-loop reporter” value (input ligand: arginine 13.2 mM)?
Its value is 93.4 nM.

And the “apparent KD of K4 kissing-loop reporter” value (input ligand: none)?
The value was 113 nM.

What about the “apparent KD of K4 kissing-loop reporter” value [1] of the same sequence?
The value was 96.6 nM.

And the “apparent KD of K4 kissing-loop reporter” value [2]?
The value was 131 nM.

Which “apparent KD of K4 kissing-loop reporter” value (input ligand: FMN 200 uM) does the source give for “UGAGGAGAAUAUGAUACCAGCAGAGAGAGAGAGGAAGUAUAGUGAUGUUAUAUGAGAUAAUGCCCUUGGCAGCAUAAGAAGAAGG [#19 K4 Theophylline B Same State]” here?
Its value is 163 nM.

What about the “apparent KD of K4 kissing-loop reporter” value (input ligand: arginine 13.2 mM) of the same sequence?
The value was 104 nM.

What about the “apparent KD of K4 kissing-loop reporter” value (input ligand: none) of the same sequence?
Its value is 111 nM.

What about the “apparent KD of K4 kissing-loop reporter” value [1] of the same sequence?
The value was 178 nM.

And the “apparent KD of K4 kissing-loop reporter” value [2]?
The value was 145 nM.

Which “apparent KD of K4 kissing-loop reporter” value (input ligand: FMN 200 uM) does the source give for “GCAUAGGCCCAUCGGAAUUCGAGACCAGCACGAGGACCGGUACGGCCGCCACUCGUGCAGUGAUGUUGCACGAUUGGGAAACCGC [Beanveceti]” here?
Its value is 115 nM.

What about the “apparent KD of K4 kissing-loop reporter” value (input ligand: arginine 13.2 mM) of the same sequence?
The value was 100 nM.

And the “apparent KD of K4 kissing-loop reporter” value (input ligand: none)?
The value was 101 nM.

And the “apparent KD of K4 kissing-loop reporter” value [1]?
Its value is 104 nM.

And the “apparent KD of K4 kissing-loop reporter” value [2]?
The value was 111 nM.
